B1: EPI-X4 JM#21 [human] / CXCR4 wt (transfected 293T cells) [human] (parent complex)
chain 1: ILRWSRKLPCVS
chain 2: MEGISIYTSDNYTEEMGSGDYDSMKEPCFREENANFNKIFLPTIYSIIFLTGIVGNGLVILVMGYQKKLRSMTDKYRLHLSVADLLFVITLPFWAVDAVANWYFGNFLCKAVHVIYTVNLYSSVLILAFISLDRYLAIVHATNSQRPRKLLAEKVVYVGVWIPALLLTIPDFIFANVSEADDRYICDRFYPNDLWVVVFQFQHIMVGLILPGIVILSCYCIIISKLSHSKGHQKRKALKTTVILILAFFACWLPYYIGISIDSFILLEIIKQGCEFENTVHKWISITEALAFFHCCLNPILYAFLGAKFKTSAQHALTSVSRGSSLKILSKGKRGGHSSVSTESESSSFHSS
B2: WSC02 [human] / CXCR4 wt (transfected 293T cells) [human] (parent complex)
chain 1: IVRWSKKVPCVS
chain 2: B1 chain 2

Variants of: B1
Test: 12G5 antibody competition assay, flow cytometry on transfected 293T cells; 2 h incubation; IC50 set to 100 µM if above the maximally used concentration; parent: 620 nM; read off a plot

| Variant | IC50 [nM] |
| --- | --- |
| chain 2 MEGISIYTSDNYTEEMGSGDYDSMKEPCFREENANFNKIFLPTIYSIIFLTGIVGNGLVILVMGYQKKLRSMTDKYRLHLSVADLLFVITLPFWAVEAVANWYFGNFLCKAVHVIYTVNLYSSVLILAFISLDRYLAIVHATNSQRPRKLLAEKVVYVGVWIPALLLTIPDFIFANVSEADDRYICDRFYPNDLWVVVFQFQHIMVGLILPGIVILSCYCIIISKLSHSKGHQKRKALKTTVILILAFFACWLPYYIGISIDSFILLEIIKQGCEFENTVHKWISITEALAFFHCCLNPILYAFLGAKFKTSAQHALTSVSRGSSLKILSKGKRGGHSSVSTESESSSFHSS [chain 2 D97E] | ~1800 |
| chain 2 MEGISIYTSDNYTEEMGSGDYDSMKEPCFREENANFNKIFLPTIYSIIFLTGIVGNGLVILVMGYQKKLRSMTDKYRLHLSVADLLFVITLPFWAVTAVANWYFGNFLCKAVHVIYTVNLYSSVLILAFISLDRYLAIVHATNSQRPRKLLAEKVVYVGVWIPALLLTIPDFIFANVSEADDRYICDRFYPNDLWVVVFQFQHIMVGLILPGIVILSCYCIIISKLSHSKGHQKRKALKTTVILILAFFACWLPYYIGISIDSFILLEIIKQGCEFENTVHKWISITEALAFFHCCLNPILYAFLGAKFKTSAQHALTSVSRGSSLKILSKGKRGGHSSVSTESESSSFHSS [chain 2 D97T] | ~3700 |
| chain 2 MEGISIYTSDNYTEEMGSGDYDSMKEPCFREENANFNKIFLPTIYSIIFLTGIVGNGLVILVMGYQKKLRSMTDKYRLHLSVADLLFVITLPFWAVSAVANWYFGNFLCKAVHVIYTVNLYSSVLILAFISLDRYLAIVHATNSQRPRKLLAEKVVYVGVWIPALLLTIPDFIFANVSEADDRYICDRFYPNDLWVVVFQFQHIMVGLILPGIVILSCYCIIISKLSHSKGHQKRKALKTTVILILAFFACWLPYYIGISIDSFILLEIIKQGCEFENTVHKWISITEALAFFHCCLNPILYAFLGAKFKTSAQHALTSVSRGSSLKILSKGKRGGHSSVSTESESSSFHSS [chain 2 D97S] | ~5400 |
| chain 2 MEGISIYTSDNYTEEMGSGDYDSMKEPCFREENANFNKIFLPTIYSIIFLTGIVGNGLVILVMGYQKKLRSMTDKYRLHLSVADLLFVITLPFWAVQAVANWYFGNFLCKAVHVIYTVNLYSSVLILAFISLDRYLAIVHATNSQRPRKLLAEKVVYVGVWIPALLLTIPDFIFANVSEADDRYICDRFYPNDLWVVVFQFQHIMVGLILPGIVILSCYCIIISKLSHSKGHQKRKALKTTVILILAFFACWLPYYIGISIDSFILLEIIKQGCEFENTVHKWISITEALAFFHCCLNPILYAFLGAKFKTSAQHALTSVSRGSSLKILSKGKRGGHSSVSTESESSSFHSS [chain 2 D97Q] | ~8000 |
| chain 2 MEGISIYTSDNYTEEMGSGDYDSMKEPCFREENANFNKIFLPTIYSIIFLTGIVGNGLVILVMGYQKKLRSMTDKYRLHLSVADLLFVITLPFWAVDAVANWYFGNFLCKAAHVIYTVNLYSSVLILAFISLDRYLAIVHATNSQRPRKLLAEKVVYVGVWIPALLLTIPDFIFANVSEADDRYICDRFYPNDLWVVVFQFQHIMVGLILPGIVILSCYCIIISKLSHSKGHQKRKALKTTVILILAFFACWLPYYIGISIDSFILLEIIKQGCEFENTVHKWISITEALAFFHCCLNPILYAFLGAKFKTSAQHALTSVSRGSSLKILSKGKRGGHSSVSTESESSSFHSS [chain 2 V112A] | ~3400 |

The remaining lines, values ahead:

| IC50 [nM] | Variant |
| --- | --- |
| ~220 | chain 2 MEGISIYTSDNYTEEMGSGDYDSMKEPCFREENANFNKIFLPTIYSIIFLTGIVGNGLVILVMGYQKKLRSMTDKYRLHLSVADLLFVITLPFWAVDAVANWYFGNFLCKAVHVIYTVNLYSSVLILAFISLDRYLAIVHATNSQRPRKLLAEKVVYVGVWIPALLLTIPDFIFANVSEADDRYICDRFYPNDLWVVVFQFQHIMVGLILPGIVILSCYCIIISKLSHSKGHQKRKALKTTVILILAFFACWLPYYIGISIASFILLEIIKQGCEFENTVHKWISITEALAFFHCCLNPILYAFLGAKFKTSAQHALTSVSRGSSLKILSKGKRGGHSSVSTESESSSFHSS [chain 2 D262A] |
| ~650 | chain 2 MEGISIYTSDNYTEEMGSGDYDSMKEPCFREENANFNKIFAPTIYSIIFLTGIVGNGLVILVMGYQKKLRSMTDKYRLHLSVADLLFVITLPFWAVDAVANWYFGNFLCKAVHVIYTVNLYSSVLILAFISLDRYLAIVHATNSQRPRKLLAEKVVYVGVWIPALLLTIPDFIFANVSEADDRYICDRFYPNDLWVVVFQFQHIMVGLILPGIVILSCYCIIISKLSHSKGHQKRKALKTTVILILAFFACWLPYYIGISIDSFILLEIIKQGCEFENTVHKWISITEALAFFHCCLNPILYAFLGAKFKTSAQHALTSVSRGSSLKILSKGKRGGHSSVSTESESSSFHSS [chain 2 L41A] |
| ~630 | chain 2 MEGISIYTSDNYTEEMGSGDYDSMKEPCFREENANFNKIFAPTIYSIIFLTGIVGNGLVILVMGYQKKLRSMTDKYRLHLSVADLLFVITLPFWAVDAVANWYFGNFLCKAAHVIYTVNLYSSVLILAFISLDRYLAIVHATNSQRPRKLLAEKVVYVGVWIPALLLTIPDFIFANVSEADDRYICDRFYPNDLWVVVFQFQHIMVGLILPGIVILSCYCIIISKLSHSKGHQKRKALKTTVILILAFFACWLPYYIGISIDSFILLEIIKQGCEFENTVHKWISITEALAFFHCCLNPILYAFLGAKFKTSAQHALTSVSRGSSLKILSKGKRGGHSSVSTESESSSFHSS [chain 2 L41A, chain 2 V112A] |
| ~400 | chain 2 MEGISIYTSDNYTEEMGSGDYDSMKEPCFREENANFNKIFLPTIYSIIFLTGIVGNGLVILVMGYQKKLRSMTDKYRLHLSVADLLFVITLPFWAVDAVANWYFGNFLCKALHVIYTVNLYSSVLILAFISLDRYLAIVHATNSQRPRKLLAEKVVYVGVWIPALLLTIPDFIFANVSEADDRYICDRFYPNDLWVVVFQFQHIMVGLILPGIVILSCYCIIISKLSHSKGHQKRKALKTTVILILAFFACWLPYYIGISIDSFILLEIIKQGCEFENTVHKWISITEALAFFHCCLNPILYAFLGAKFKTSAQHALTSVSRGSSLKILSKGKRGGHSSVSTESESSSFHSS [chain 2 V112L] |
| ~270 | chain 2 MEGISIYTSDNYTEEMGSGDYDSMKEPCFREENANFNKIFLPTIYSIIFLTGIVGNGLVILVMGYQKKLRSMTDKYRLHLSVADLLFVITLPFWAVDAVANWYFGNFLCKAVHVIYTVNLYSSVLILAFISLDRYLAIVHATNSQRPRKLLAEKVVYVGVWIPALLLTIPDFIFANVSEADDRYICDRFYPNDLWVVVFQFQHIMVGLILPGIVILSCYCIIISKLSHSKGHQKRKALKTTVILILAFFACWLPYYIGISIDSFILLEIIKQGCEFANTVHKWISITEALAFFHCCLNPILYAFLGAKFKTSAQHALTSVSRGSSLKILSKGKRGGHSSVSTESESSSFHSS [chain 2 E277A] |
| ~460 | chain 2 MEGISIYTSDNYTEEMGSGDYDSMKEPCFREENANFNKIFLPTIYSIIFLTGIVGNGLVILVMGYQKKLRSMTDKYRLHLSVADLLFVITLPFWAVEAVANWYFGNFLCKAAHVIYTVNLYSSVLILAFISLDRYLAIVHATNSQRPRKLLAEKVVYVGVWIPALLLTIPDFIFANVSEADDRYICDRFYPNDLWVVVFQFQHIMVGLILPGIVILSCYCIIISKLSHSKGHQKRKALKTTVILILAFFACWLPYYIGISIDSFILLEIIKQGCEFENTVHKWISITEALAFFHCCLNPILYAFLGAKFKTSAQHALTSVSRGSSLKILSKGKRGGHSSVSTESESSSFHSS [chain 2 D97E, chain 2 V112A] |
| ~380 | chain 2 MEGISIYTSDNYTEEMGSGDYDSMKEPCFREENANFNKIFLPTIYSIIFLTGIVGNGLVILVMGYQKKLRSMTDKYRLHLSVADLLFVITLPFWAVEAVANWYFGNFLCKALHVIYTVNLYSSVLILAFISLDRYLAIVHATNSQRPRKLLAEKVVYVGVWIPALLLTIPDFIFANVSEADDRYICDRFYPNDLWVVVFQFQHIMVGLILPGIVILSCYCIIISKLSHSKGHQKRKALKTTVILILAFFACWLPYYIGISIDSFILLEIIKQGCEFENTVHKWISITEALAFFHCCLNPILYAFLGAKFKTSAQHALTSVSRGSSLKILSKGKRGGHSSVSTESESSSFHSS [chain 2 D97E, chain 2 V112L] |

Variants of: B2
Test: 12G5 antibody competition assay, flow cytometry on transfected 293T cells; 2 h incubation; IC50 set to 1000 µM if above the maximally used concentration; parent: 1e+03 nM; read off a plot

| Variant | IC50 [nM] |
| --- | --- |
| chain 2 MEGISIYTSDNYTEEMGSGDYDSMKEPCFREENANFNKIFLPTIYSIIFLTGIVGNGLVILVMGYQKKLRSMTDKYRLHLSVADLLFVITLPFWAVDAVANWYFGNFLCKAVHVIYTVNLYSSVLILAFISLDRYLAIVHATNSQRPRKLLAEKVVYVGVWIPALLLTIPDFIFANVSEADDRYICDRFYPNDLWVVVFQFQHIMVGLILPGIVILSCYCIIISKLSHSKGHQKRKALKTTVILILAFFACWLPYYIGISIASFILLEIIKQGCEFENTVHKWISITEALAFFHCCLNPILYAFLGAKFKTSAQHALTSVSRGSSLKILSKGKRGGHSSVSTESESSSFHSS [chain 2 D262A] | ~450 |
| chain 2 MEGISIYTSDNYTEEMGSGDYDSMKEPCFREENANFNKIFLPTIYSIIFLTGIVGNGLVILVMGYQKKLRSMTDKYRLHLSVADLLFVITLPFWAVEAVANWYFGNFLCKAAHVIYTVNLYSSVLILAFISLDRYLAIVHATNSQRPRKLLAEKVVYVGVWIPALLLTIPDFIFANVSEADDRYICDRFYPNDLWVVVFQFQHIMVGLILPGIVILSCYCIIISKLSHSKGHQKRKALKTTVILILAFFACWLPYYIGISIDSFILLEIIKQGCEFENTVHKWISITEALAFFHCCLNPILYAFLGAKFKTSAQHALTSVSRGSSLKILSKGKRGGHSSVSTESESSSFHSS [chain 2 D97E, chain 2 V112A] | ~1700 |
| chain 2 MEGISIYTSDNYTEEMGSGDYDSMKEPCFREENANFNKIFLPTIYSIIFLTGIVGNGLVILVMGYQKKLRSMTDKYRLHLSVADLLFVITLPFWAVEAVANWYFGNFLCKALHVIYTVNLYSSVLILAFISLDRYLAIVHATNSQRPRKLLAEKVVYVGVWIPALLLTIPDFIFANVSEADDRYICDRFYPNDLWVVVFQFQHIMVGLILPGIVILSCYCIIISKLSHSKGHQKRKALKTTVILILAFFACWLPYYIGISIDSFILLEIIKQGCEFENTVHKWISITEALAFFHCCLNPILYAFLGAKFKTSAQHALTSVSRGSSLKILSKGKRGGHSSVSTESESSSFHSS [chain 2 D97E, chain 2 V112L] | ~1700 |
| chain 2 MEGISIYTSDNYTEEMGSGDYDSMKEPCFREENANFNKIFLPTIYSIIFLTGIVGNGLVILVMGYQKKLRSMTDKYRLHLSVADLLFVITLPFWAVTAVANWYFGNFLCKAVHVIYTVNLYSSVLILAFISLDRYLAIVHATNSQRPRKLLAEKVVYVGVWIPALLLTIPDFIFANVSEADDRYICDRFYPNDLWVVVFQFQHIMVGLILPGIVILSCYCIIISKLSHSKGHQKRKALKTTVILILAFFACWLPYYIGISIDSFILLEIIKQGCEFENTVHKWISITEALAFFHCCLNPILYAFLGAKFKTSAQHALTSVSRGSSLKILSKGKRGGHSSVSTESESSSFHSS [chain 2 D97T] | ~30000 |

Source: publication PMC8458281, “Computational modeling and experimental validation of the EPI-X4/CXCR4 complex allows rational design of small peptide antagonists” (Communications Biology, 2021)
